Assays:
[1] = system: AncSZ; experiment: phosphorylation enrichment, bacterial display (enrichment ratio); higher = better substrate or ligand; peptides without Tyr show the background
[2] = target: EPHB1 (UniProt P54762); experiment: as above
[3] = target: EPHB2 (UniProt P29323); experiment: as above
[4] = target: FGFR1 (UniProt P11362); experiment: as above
[5] = target: FGFR3 (UniProt P22607); experiment: as above
[6] = system: Fer (mouse); experiment: as above
[7] = target: Fes (UniProt P07332); experiment: as above
[8] = target: Fyn (UniProt P06241); experiment: as above
[9] = target: Hck (UniProt P08631); experiment: as above
[10] = target: Jak2 (UniProt O60674); experiment: as above
Chain of Jak2 (O60674 whole entry, looked up): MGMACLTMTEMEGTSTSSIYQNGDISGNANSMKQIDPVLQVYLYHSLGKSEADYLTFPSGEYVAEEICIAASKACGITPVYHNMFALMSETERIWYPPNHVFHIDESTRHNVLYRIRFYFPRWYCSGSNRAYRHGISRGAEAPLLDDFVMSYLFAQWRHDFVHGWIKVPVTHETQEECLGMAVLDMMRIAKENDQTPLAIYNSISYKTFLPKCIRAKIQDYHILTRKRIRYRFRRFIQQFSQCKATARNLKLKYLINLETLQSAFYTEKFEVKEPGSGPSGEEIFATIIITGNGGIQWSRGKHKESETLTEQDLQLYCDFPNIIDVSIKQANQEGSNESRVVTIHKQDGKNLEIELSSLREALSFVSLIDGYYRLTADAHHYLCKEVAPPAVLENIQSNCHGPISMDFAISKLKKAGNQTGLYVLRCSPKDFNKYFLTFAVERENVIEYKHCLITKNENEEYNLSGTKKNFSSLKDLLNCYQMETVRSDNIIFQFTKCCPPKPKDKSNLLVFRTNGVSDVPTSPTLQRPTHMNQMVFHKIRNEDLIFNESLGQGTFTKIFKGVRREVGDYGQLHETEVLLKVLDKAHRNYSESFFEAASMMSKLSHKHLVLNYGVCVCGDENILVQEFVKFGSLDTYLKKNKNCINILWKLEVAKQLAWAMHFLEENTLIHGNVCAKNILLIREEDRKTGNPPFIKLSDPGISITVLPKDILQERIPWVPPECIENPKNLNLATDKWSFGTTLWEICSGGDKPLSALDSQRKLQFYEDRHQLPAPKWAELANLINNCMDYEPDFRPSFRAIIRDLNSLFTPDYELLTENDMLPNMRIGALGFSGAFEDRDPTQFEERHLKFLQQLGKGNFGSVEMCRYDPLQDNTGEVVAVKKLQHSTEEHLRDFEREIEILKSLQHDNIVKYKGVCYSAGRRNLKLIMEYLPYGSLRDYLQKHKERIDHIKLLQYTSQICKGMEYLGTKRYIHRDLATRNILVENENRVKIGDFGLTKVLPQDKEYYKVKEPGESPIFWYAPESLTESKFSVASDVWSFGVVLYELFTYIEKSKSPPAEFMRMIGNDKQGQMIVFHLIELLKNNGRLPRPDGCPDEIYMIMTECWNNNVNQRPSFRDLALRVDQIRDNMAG

[11] = target: MERTK (UniProt Q12866); experiment: as above
Chain of MERTK (Q12866 whole entry, looked up): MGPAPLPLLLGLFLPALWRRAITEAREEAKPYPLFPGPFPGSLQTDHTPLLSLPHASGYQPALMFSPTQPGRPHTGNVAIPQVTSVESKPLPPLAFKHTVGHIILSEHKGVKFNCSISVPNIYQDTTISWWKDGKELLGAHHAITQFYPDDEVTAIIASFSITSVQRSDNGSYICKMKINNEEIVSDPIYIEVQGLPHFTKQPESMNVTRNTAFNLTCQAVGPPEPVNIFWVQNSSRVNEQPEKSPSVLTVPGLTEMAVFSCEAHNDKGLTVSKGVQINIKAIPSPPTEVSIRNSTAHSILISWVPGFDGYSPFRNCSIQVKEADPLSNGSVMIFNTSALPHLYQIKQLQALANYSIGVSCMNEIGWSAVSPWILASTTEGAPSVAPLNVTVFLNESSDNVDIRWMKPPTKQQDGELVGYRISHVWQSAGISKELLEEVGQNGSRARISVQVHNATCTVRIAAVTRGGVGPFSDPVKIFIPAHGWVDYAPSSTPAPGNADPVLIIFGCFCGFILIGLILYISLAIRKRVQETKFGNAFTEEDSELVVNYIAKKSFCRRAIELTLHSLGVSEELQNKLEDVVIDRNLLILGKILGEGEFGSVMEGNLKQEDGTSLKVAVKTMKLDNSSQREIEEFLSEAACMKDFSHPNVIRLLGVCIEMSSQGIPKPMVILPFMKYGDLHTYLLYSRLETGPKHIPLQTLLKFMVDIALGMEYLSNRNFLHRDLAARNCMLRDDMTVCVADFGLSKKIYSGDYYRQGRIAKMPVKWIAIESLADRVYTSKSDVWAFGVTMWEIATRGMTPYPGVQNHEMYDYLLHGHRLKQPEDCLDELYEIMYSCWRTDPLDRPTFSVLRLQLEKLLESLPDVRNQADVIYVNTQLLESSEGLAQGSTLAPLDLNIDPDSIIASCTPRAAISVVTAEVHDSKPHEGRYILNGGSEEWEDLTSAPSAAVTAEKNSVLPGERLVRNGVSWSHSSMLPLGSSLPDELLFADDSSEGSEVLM

[12] = system: c-Abl (mouse); experiment: as above
[13] = system: c-Src; experiment: as above
[14] = target: Grb2 SH2 (UniProt P62993); experiment: SH2 binding enrichment of the phosphorylated peptide, bacterial display (enrichment ratio); higher = better substrate or ligand; peptides without Tyr show the background
[15] = target: SHP2-C SH2; experiment: as above
[16] = target: c-Src SH2; experiment: as above
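Throughout, for SH2 binding enrichment of the phosphorylated peptide, bacterial display: peptide library displayed on the E. coli surface as eCPX fusions, selected cells deep-sequenced, score is each peptide's frequency after selection divided by its frequency in the input.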
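Throughout, for phosphorylation enrichment, bacterial display: 11-residue human phosphosite peptides and single-mutation variants displayed on the E. coli surface, counted by deep sequencing, each peptide's frequency after selection divided by its frequency in the unselected input library; frequency after pTyr selection over input frequency; kinase dosed for 20-30% of maximal phosphorylation in three min.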

Chain of FGFR1 (P11362 whole entry, looked up): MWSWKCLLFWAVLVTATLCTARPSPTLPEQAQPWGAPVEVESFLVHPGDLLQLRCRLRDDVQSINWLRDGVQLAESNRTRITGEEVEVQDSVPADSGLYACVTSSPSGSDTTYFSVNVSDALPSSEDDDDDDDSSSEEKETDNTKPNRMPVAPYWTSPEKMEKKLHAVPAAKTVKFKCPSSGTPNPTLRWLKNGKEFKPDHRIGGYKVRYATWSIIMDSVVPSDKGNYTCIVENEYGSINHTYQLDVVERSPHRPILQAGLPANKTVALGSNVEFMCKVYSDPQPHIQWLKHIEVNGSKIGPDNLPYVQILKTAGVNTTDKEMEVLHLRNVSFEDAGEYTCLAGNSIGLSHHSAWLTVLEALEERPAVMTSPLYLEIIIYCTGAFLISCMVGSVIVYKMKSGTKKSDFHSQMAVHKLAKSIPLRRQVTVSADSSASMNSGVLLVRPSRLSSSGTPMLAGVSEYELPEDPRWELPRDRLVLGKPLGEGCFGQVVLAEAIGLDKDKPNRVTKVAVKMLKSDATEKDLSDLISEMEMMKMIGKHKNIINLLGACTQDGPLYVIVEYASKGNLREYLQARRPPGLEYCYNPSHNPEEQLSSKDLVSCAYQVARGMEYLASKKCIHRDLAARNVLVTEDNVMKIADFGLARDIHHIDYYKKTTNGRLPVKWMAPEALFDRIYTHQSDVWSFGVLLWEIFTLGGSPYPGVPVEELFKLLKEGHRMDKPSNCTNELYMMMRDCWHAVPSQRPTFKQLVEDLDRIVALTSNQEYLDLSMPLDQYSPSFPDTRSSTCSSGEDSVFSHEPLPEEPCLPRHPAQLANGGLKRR
Chain of FGFR3 (P22607 whole entry, looked up): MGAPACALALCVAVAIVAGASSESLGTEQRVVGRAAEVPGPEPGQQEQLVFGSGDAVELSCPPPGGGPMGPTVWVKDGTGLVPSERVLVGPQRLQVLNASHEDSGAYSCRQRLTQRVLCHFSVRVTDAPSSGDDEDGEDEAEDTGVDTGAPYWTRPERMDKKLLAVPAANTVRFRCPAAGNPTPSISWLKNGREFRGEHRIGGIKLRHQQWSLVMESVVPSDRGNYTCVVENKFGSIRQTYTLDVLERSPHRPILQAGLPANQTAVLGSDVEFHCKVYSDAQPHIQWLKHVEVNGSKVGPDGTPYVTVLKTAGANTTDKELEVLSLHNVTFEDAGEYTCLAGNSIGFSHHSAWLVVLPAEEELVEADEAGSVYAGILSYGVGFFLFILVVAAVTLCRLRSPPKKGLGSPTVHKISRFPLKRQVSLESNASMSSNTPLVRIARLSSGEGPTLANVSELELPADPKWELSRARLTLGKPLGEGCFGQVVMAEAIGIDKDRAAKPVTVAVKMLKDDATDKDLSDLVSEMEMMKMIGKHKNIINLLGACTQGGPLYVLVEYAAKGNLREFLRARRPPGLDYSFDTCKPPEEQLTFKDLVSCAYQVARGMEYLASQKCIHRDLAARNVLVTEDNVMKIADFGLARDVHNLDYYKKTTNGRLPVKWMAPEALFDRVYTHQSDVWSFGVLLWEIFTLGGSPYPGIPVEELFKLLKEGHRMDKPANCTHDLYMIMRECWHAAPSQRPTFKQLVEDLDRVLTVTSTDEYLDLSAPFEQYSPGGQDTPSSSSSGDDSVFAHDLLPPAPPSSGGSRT
Chain of EPHB1 (P54762 whole entry, looked up): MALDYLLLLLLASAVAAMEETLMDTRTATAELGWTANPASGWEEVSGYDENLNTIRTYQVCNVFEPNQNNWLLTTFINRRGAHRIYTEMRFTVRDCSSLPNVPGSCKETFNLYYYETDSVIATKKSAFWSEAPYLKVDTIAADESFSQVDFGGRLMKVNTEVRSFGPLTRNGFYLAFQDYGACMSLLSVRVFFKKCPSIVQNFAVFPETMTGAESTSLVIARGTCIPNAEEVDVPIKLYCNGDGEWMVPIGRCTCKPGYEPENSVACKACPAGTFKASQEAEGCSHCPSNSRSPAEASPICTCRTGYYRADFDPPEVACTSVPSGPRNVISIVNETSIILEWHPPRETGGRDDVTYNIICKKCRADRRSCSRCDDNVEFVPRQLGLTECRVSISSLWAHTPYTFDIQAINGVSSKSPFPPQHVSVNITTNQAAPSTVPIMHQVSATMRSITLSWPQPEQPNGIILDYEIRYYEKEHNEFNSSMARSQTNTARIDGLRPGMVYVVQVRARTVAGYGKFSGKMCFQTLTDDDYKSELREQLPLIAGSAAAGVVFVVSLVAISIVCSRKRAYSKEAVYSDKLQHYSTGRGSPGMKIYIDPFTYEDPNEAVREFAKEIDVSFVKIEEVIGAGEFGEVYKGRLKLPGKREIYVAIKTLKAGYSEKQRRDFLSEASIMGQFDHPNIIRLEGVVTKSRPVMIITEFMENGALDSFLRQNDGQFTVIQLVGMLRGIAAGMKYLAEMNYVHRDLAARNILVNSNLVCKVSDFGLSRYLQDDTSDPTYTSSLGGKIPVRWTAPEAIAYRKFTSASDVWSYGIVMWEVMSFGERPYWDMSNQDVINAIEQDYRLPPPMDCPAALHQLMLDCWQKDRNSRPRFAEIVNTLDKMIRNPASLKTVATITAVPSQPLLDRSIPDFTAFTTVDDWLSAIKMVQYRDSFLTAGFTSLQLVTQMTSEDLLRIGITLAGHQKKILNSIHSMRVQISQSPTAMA

Row | SH2 binding enrichment [14] | SH2 binding enrichment [15] | SH2 binding enrichment [16] | Sequence | phosphorylation enrichment [1] | phosphorylation enrichment [2] | phosphorylation enrichment [3] | phosphorylation enrichment [4] | phosphorylation enrichment [5] | phosphorylation enrichment [6] | phosphorylation enrichment [7] | phosphorylation enrichment [8] | phosphorylation enrichment [9] | phosphorylation enrichment [10] | phosphorylation enrichment [11] | phosphorylation enrichment [12] | phosphorylation enrichment [13]
1 | 0.8 | 0.681 | 0.542 | IFRASYVPFAA [RBM47_Y541_G538R_YF] | 0.859 | 0.645 | 0.548 | 0.508 | 0.635 | 0.388 | 1.04 | 0.463 | 0.506 | 0.784 | 0.389 | 0.527 | 0.384
2 | 0.825 | 0.577 | 0.516 | IGCHAYGDQFR [IDH1_Y135_R132C_YF] | 0.933 | 0.516 | 0.532 | 0.529 | 0.659 | 0.55 | 1.04 | 0.495 | 0.51 | 0.933 | 0.497 | 0.82 | 0.611
3 | 0.964 | 1.06 | 0.466 | IGNGFYFRVFS [MYBPC3_Y1136_YF] | 1.05 | 0.64 | 0.568 | 0.438 | 0.756 | 0.519 | 1.38 | 0.365 | 0.45 | 1.43 | 0.374 | 0.818 | 0.361
4 | 0.908 | 0.627 | 0.971 | IGVDSYSVCKR [RPS6KA3_Y433_G431D] | 0.537 | 0.402 | 0.418 | 0.381 | 0.405 | 0.366 | 0.577 | 0.347 | 0.387 | 0.462 | 0.338 | 0.417 | 0.322
5 | 1.65 | 1.17 | 1.19 | IHADIYRWFNI [MARS1_Y344] | 1.22 | 0.716 | 0.6 | 9.43 | 6.99 | 8.95 | 1.42 | 2.23 | 2.14 | 1.12 | 5 | 6.74 | 3.77
6 | 0.883 | 0.71 | 1.25 | IHYPPYTDWNQ [ALDH3B2_Y365] | 0.889 | 0.527 | 0.676 | 1.14 | 0.881 | 2.21 | 0.933 | 0.512 | 0.655 | 0.736 | 0.429 | 0.938 | 0.573
7 | 2.13 | 2.19 | 1.13 | IIRFNYLLDVL [FGFR4_Y237_S232I_YF] | 1.2 | 0.688 | 0.478 | 0.809 | 0.763 | 0.47 | 1.31 | 0.513 | 0.522 | 0.89 | 0.465 | 0.996 | 0.525
8 | 0.644 | 0.61 | 0.502 | IKKFKYGIEEH [GJA1_Y137] | 0.836 | 0.42 | 0.497 | 0.4 | 0.476 | 0.382 | 0.697 | 0.374 | 0.402 | 0.582 | 0.323 | 0.498 | 0.336
9 | 1.4 | 1.06 | 0.612 | IKKLIYVYLVI [JAGN1_Y42_H44Y] | 0.873 | 0.466 | 0.411 | 0.351 | 0.452 | 0.323 | 0.97 | 0.412 | 0.43 | 0.817 | 0.427 | 0.955 | 0.475
10 | 0.736 | 0.857 | 0.543 | ILDEAYVMAGA [ERBB2_Y772_V777A] | 1.48 | 0.662 | 0.67 | 0.639 | 0.789 | 0.516 | 1.27 | 0.596 | 0.537 | 0.986 | 0.507 | 0.761 | 0.744
11 | 0.816 | 0.806 | 0.502 | ILTLKYPIEHG [ACTA1_Y71] | 0.716 | 0.476 | 0.485 | 0.47 | 0.592 | 0.391 | 0.78 | 0.437 | 0.453 | 0.584 | 0.391 | 0.57 | 0.376
12 | 1.14 | 0.94 | 0.731 | ILTLKYPIELG [ACTA1_Y71_H75L] | 0.886 | 0.578 | 0.572 | 0.47 | 0.601 | 0.457 | 0.986 | 0.435 | 0.518 | 0.74 | 0.352 | 0.476 | 0.352
13 | 0.953 | 1.13 | 0.807 | INMKKYCKKDF [NTN1_Y490_YF] | 0.854 | 0.45 | 0.522 | 0.56 | 0.757 | 0.572 | 0.948 | 0.438 | 0.437 | 0.689 | 0.659 | 0.734 | 0.491
14 | 0.991 | 1.15 | 0.641 | IPGMEYLVSII [TNC_Y1775_V1773M] | 1.44 | 0.65 | 0.855 | 0.72 | 0.889 | 0.722 | 1.41 | 0.612 | 0.522 | 1.11 | 0.565 | 0.825 | 0.583
15 | 0.961 | 0.771 | 5.75 | IRQDHYESLKE [MTR_Y921] | 0.755 | 0.529 | 0.482 | 0.45 | 0.693 | 0.483 | 0.873 | 0.494 | 0.594 | 0.733 | 0.509 | 0.56 | 0.48
16 | 0.724 | 0.45 | 0.408 | ISISPYPAILH [IFT80_Y588_T586S] | 1.01 | 0.428 | 0.401 | 0.341 | 0.547 | 0.418 | 0.961 | 0.343 | 0.377 | 0.765 | 0.354 | 0.557 | 0.358
